# Article PMC9482650, “Quantitative fragmentomics allow affinity mapping of interactomes” (Nature Communications, 2022)
# T1: ARHGEF11, O15085
# T1 sequence (O15085 42-136, limits assumed, looked up): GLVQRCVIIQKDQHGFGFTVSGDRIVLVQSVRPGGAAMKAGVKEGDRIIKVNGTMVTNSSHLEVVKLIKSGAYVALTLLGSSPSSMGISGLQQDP
# T2: APBA2_1, Q99767
# T2 sequence (Q99767 563-664, limits assumed, looked up): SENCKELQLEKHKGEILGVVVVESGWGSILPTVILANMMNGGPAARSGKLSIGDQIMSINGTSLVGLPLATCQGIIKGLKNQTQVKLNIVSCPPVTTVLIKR
# T3: NHERF3_4, Q5T2W1
# T3 sequence (Q5T2W1 373-468, limits assumed, looked up): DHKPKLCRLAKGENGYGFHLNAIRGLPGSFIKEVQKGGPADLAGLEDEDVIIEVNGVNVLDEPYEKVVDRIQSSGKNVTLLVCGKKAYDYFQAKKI
# T4: SNTB1, Q13884
# T4 sequence (Q13884 107-205, limits assumed, looked up): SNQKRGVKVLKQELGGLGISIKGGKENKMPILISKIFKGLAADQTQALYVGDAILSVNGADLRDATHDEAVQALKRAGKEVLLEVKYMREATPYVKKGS
# T5: LNX2_3, Q8N448
# T5 sequence (Q8N448 463-564, limits assumed, looked up): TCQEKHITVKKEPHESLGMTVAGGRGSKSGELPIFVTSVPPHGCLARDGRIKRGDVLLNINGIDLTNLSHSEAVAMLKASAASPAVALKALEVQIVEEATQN
# T6: MPP6, Q9NZW5
# T6 sequence (Q9NZW5 125-219, limits assumed, looked up): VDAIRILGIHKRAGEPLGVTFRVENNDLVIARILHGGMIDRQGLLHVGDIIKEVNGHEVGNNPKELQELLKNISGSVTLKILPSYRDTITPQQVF
# T7: MPP2, Q14168
# T7 sequence (Q14168 180-250, limits assumed, looked up): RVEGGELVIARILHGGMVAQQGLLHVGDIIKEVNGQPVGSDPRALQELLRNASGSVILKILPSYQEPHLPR
# T8: DLG3_3, Q92796
# T8 sequence (Q92796 374-475, limits assumed, looked up): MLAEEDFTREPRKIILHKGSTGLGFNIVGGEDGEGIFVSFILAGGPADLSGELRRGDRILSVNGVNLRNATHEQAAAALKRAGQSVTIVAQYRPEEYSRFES
# T9: GRIP1_7, Q9Y3R0
# T9 sequence (Q9Y3R0 999-1096, limits assumed, looked up): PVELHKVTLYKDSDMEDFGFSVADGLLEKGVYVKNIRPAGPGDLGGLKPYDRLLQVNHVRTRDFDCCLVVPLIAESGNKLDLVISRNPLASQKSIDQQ
# T10: GRIP1_2, Q9Y3R0
# T10 sequence (Q9Y3R0 145-248, limits assumed, looked up): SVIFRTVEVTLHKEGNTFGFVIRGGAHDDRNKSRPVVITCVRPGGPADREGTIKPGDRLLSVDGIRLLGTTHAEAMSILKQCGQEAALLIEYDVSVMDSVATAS
# T11: GRIP1_3, Q9Y3R0
# T11 sequence (Q9Y3R0 247-346, limits assumed, looked up): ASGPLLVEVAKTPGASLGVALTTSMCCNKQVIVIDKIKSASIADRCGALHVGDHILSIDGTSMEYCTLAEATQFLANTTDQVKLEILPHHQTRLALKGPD
# T12: APBA2_2, Q99767
# T12 sequence (Q99767 654-744, limits assumed, looked up): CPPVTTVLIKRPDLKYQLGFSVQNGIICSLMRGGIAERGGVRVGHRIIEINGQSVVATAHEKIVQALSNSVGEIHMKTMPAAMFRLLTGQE
# T13: DFNB31_1, Q9P202
# T13 sequence (Q9P202 135-233, limits assumed, looked up): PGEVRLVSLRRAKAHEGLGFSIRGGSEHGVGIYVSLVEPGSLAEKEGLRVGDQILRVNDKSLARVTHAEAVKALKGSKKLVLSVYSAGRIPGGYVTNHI
# B1: PTGIR, P43119 (peptide)
# chain: AEASVACSLC
# Molecular target: CASK, O14936
# Sequence (O14936 487-570): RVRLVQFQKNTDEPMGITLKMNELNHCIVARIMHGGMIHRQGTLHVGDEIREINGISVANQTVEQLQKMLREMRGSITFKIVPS
# Experiment: holdup assay
# Set-up: key: below the threshold = too weak to quantify, mostly under pKd 3.1 to 4
# Conditions: plain residues with an end cap or a label only (N-terminal biotin on a linker: ado-ado)
row,pKd,Binder
1,below the threshold,B1

# Molecular target: T1, ARHGEF11, O15085
# Experiment: holdup assay
# Set-up: key: below the threshold = too weak to quantify, mostly under pKd 3.1 to 4
# Conditions: plain residues with an end cap or a label only (N-terminal biotin on a linker: ado-ado)
row,pKd,Binder
1,below the threshold,B1

# Molecular target: T2, APBA2_1, Q99767
# Experiment: holdup assay
# Set-up: key: below the threshold = too weak to quantify, mostly under pKd 3.1 to 4
# Conditions: plain residues with an end cap or a label only (N-terminal biotin on a linker: ado-ado)
row,pKd,Binder
1,below the threshold,B1

# Molecular target: NOS1, P29475
# Sequence (P29475 9-101): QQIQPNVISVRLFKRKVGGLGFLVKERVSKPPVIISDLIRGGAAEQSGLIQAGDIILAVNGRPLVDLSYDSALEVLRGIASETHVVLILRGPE
# Experiment: holdup assay
# Set-up: key: below the threshold = too weak to quantify, mostly under pKd 3.1 to 4
# Conditions: plain residues with an end cap or a label only (N-terminal biotin on a linker: ado-ado)
row,pKd,Binder
1,below the threshold,B1

# Molecular target: T3, NHERF3_4, Q5T2W1
# Experiment: holdup assay
# Set-up: key: below the threshold = too weak to quantify, mostly under pKd 3.1 to 4
# Conditions: plain residues with an end cap or a label only (N-terminal biotin on a linker: ado-ado)
row,pKd,Binder
1,below the threshold,B1

# Molecular target: GORASP2, Q9H8Y8
# Experiment: holdup assay
# Set-up: key: below the threshold = too weak to quantify, mostly under pKd 3.1 to 4
# Conditions: plain residues with an end cap or a label only (N-terminal biotin on a linker: ado-ado)
row,pKd,Binder
1,below the threshold,B1

# Molecular target: DLG4_1, P78352
# Sequence (P78352 62-152): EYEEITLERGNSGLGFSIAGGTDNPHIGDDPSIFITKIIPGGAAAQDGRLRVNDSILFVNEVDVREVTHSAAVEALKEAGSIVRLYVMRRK
# Experiment: holdup assay
# Set-up: key: below the threshold = too weak to quantify, mostly under pKd 3.1 to 4
# Conditions: plain residues with an end cap or a label only (N-terminal biotin on a linker: ado-ado)
row,pKd,Binder
1,below the threshold,B1

# Molecular target: LNX1_3, Q8TBB1
# Sequence (Q8TBB1 500-596): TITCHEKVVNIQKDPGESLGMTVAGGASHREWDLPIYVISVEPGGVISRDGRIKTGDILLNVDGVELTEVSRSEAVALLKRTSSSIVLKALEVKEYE
# Experiment: holdup assay
# Set-up: key: below the threshold = too weak to quantify, mostly under pKd 3.1 to 4
# Conditions: plain residues with an end cap or a label only (N-terminal biotin on a linker: ado-ado)
row,pKd,Binder
1,below the threshold,B1

# Molecular target: T4, SNTB1, Q13884
# Experiment: holdup assay
# Set-up: key: below the threshold = too weak to quantify, mostly under pKd 3.1 to 4
# Conditions: plain residues with an end cap or a label only (N-terminal biotin on a linker: ado-ado)
row,pKd,Binder
1,below the threshold,B1

# Molecular target: T5, LNX2_3, Q8N448
# Experiment: holdup assay
# Set-up: key: below the threshold = too weak to quantify, mostly under pKd 3.1 to 4
# Conditions: plain residues with an end cap or a label only (N-terminal biotin on a linker: ado-ado)
row,pKd,Binder
1,below the threshold,B1

# Molecular target: TJP1_3, Q07157
# Sequence (Q07157 416-512): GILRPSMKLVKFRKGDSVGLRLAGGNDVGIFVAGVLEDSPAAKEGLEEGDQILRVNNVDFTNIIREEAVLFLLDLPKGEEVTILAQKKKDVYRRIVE
# Experiment: holdup assay
# Set-up: key: below the threshold = too weak to quantify, mostly under pKd 3.1 to 4
# Conditions: plain residues with an end cap or a label only (N-terminal biotin on a linker: ado-ado)
row,pKd,Binder
1,below the threshold,B1

# Molecular target: T6, MPP6, Q9NZW5
# Experiment: holdup assay
# Set-up: key: below the threshold = too weak to quantify, mostly under pKd 3.1 to 4
# Conditions: plain residues with an end cap or a label only (N-terminal biotin on a linker: ado-ado)
row,pKd,Binder
1,below the threshold,B1

# Molecular target: T7, MPP2, Q14168
# Experiment: holdup assay
# Set-up: key: below the threshold = too weak to quantify, mostly under pKd 3.1 to 4
# Conditions: plain residues with an end cap or a label only (N-terminal biotin on a linker: ado-ado)
row,pKd,Binder
1,below the threshold,B1

# Molecular target: T8, DLG3_3, Q92796
# Experiment: holdup assay
# Set-up: key: below the threshold = too weak to quantify, mostly under pKd 3.1 to 4
# Conditions: plain residues with an end cap or a label only (N-terminal biotin on a linker: ado-ado)
row,pKd,Binder
1,below the threshold,B1

# Molecular target: MAST2, Q6P0Q8
# Sequence (Q6P0Q8 1099-1202): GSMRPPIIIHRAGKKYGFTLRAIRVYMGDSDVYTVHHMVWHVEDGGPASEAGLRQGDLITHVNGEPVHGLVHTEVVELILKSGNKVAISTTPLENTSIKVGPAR
# Experiment: holdup assay
# Set-up: key: below the threshold = too weak to quantify, mostly under pKd 3.1 to 4
# Conditions: plain residues with an end cap or a label only (N-terminal biotin on a linker: ado-ado)
row,pKd,Binder
1,4.32,B1

# Molecular target: T9, GRIP1_7, Q9Y3R0
# Experiment: holdup assay
# Set-up: key: below the threshold = too weak to quantify, mostly under pKd 3.1 to 4
# Conditions: plain residues with an end cap or a label only (N-terminal biotin on a linker: ado-ado)
row,pKd,Binder
1,below the threshold,B1

# Molecular target: T10, GRIP1_2, Q9Y3R0
# Experiment: holdup assay
# Set-up: key: below the threshold = too weak to quantify, mostly under pKd 3.1 to 4
# Conditions: plain residues with an end cap or a label only (N-terminal biotin on a linker: ado-ado)
row,pKd,Binder
1,below the threshold,B1

# Molecular target: T11, GRIP1_3, Q9Y3R0
# Experiment: holdup assay
# Set-up: key: below the threshold = too weak to quantify, mostly under pKd 3.1 to 4
# Conditions: plain residues with an end cap or a label only (N-terminal biotin on a linker: ado-ado)
row,pKd,Binder
1,below the threshold,B1

# Molecular target: GRID2IP_1, A4D2P6
# Sequence (A4D2P6 1-87): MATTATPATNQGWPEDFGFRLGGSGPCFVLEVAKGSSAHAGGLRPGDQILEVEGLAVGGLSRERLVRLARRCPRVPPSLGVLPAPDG
# Experiment: holdup assay
# Set-up: key: below the threshold = too weak to quantify, mostly under pKd 3.1 to 4
# Conditions: plain residues with an end cap or a label only (N-terminal biotin on a linker: ado-ado)
row,pKd,Binder
1,below the threshold,B1

# Molecular target: GIPC2, Q8TF65
# Sequence (Q8TF65 112-203): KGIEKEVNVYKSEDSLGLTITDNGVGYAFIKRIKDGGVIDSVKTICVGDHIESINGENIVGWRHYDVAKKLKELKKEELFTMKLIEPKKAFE
# Experiment: holdup assay
# Set-up: key: below the threshold = too weak to quantify, mostly under pKd 3.1 to 4
# Conditions: plain residues with an end cap or a label only (N-terminal biotin on a linker: ado-ado)
row,pKd,Binder
1,3.75,B1

# Molecular target: T12, APBA2_2, Q99767
# Experiment: holdup assay
# Set-up: key: below the threshold = too weak to quantify, mostly under pKd 3.1 to 4
# Conditions: plain residues with an end cap or a label only (N-terminal biotin on a linker: ado-ado)
row,pKd,Binder
1,below the threshold,B1

# Molecular target: T13, DFNB31_1, Q9P202
# Experiment: holdup assay
# Set-up: key: below the threshold = too weak to quantify, mostly under pKd 3.1 to 4
# Conditions: plain residues with an end cap or a label only (N-terminal biotin on a linker: ado-ado)
row,pKd,Binder
1,below the threshold,B1

# Molecular target: DLG1_3, Q12959
# Sequence (Q12959 457-571): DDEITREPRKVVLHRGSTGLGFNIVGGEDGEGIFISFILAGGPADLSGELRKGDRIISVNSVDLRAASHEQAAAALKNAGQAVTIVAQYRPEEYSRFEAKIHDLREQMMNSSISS
# Experiment: holdup assay
# Set-up: key: below the threshold = too weak to quantify, mostly under pKd 3.1 to 4
# Conditions: plain residues with an end cap or a label only (N-terminal biotin on a linker: ado-ado)
row,pKd,Binder
1,below the threshold,B1

# Molecular target: IL16_4, Q14005
# Sequence (Q14005 1229-1329): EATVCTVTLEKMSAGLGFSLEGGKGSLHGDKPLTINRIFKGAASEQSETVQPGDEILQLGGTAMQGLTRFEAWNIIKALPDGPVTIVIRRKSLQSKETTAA
# Experiment: holdup assay
# Set-up: key: below the threshold = too weak to quantify, mostly under pKd 3.1 to 4
# Conditions: plain residues with an end cap or a label only (N-terminal biotin on a linker: ado-ado)
row,pKd,Binder
1,below the threshold,B1
